# The supplement of paper PMC6755084
# B1: minF1; the commonest letter at each place (parent)
# chain: GAGACCGCAACTGAAAAGTTGTTATCAGAAATGGATGGGTTGAATTTCTGCACGTAGAAGCAAAAGGC
# Variants of: B1
# Test: fraction ligated after 30 min (ligated reads / total reads); higher = more ligase activity
# Details: with F1*subA RNA substrate (template-directed ligation), 42 °C
# Description: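 Chip-synthesised pool of minF1 ligase ribozyme variants (single and double substitutions, single to quadruple deletions, bulge and P2 designed variants) was transcribed with T7 and reacted as a pool with excess substrate F1*subA for 30 min at 42 C in 50 mM EPPS pH 8.5, 25 mM MgCl2. Ligated and unligated RNAs were separated by PAGE, barcoded by RT and deep sequenced; fraction ligated = ligated reads / total reads, relative activity = FL / FL of wild-type minF1 (0.76); sequencing FL correlated with PAGE (R2 = 0.98). Sequences are the DNA template of the ribozyme.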
row,Variant,fraction ligated
1,T23G G42C,0.00862
2,T23G G42T,0.0401
3,T23G T25A,0.0923
4,T23G T25C,0.153
5,T23G T25G,0.193
6,T23G T32A,0.084
7,T23G T32C,0.00942
8,T23G T32G,0.0266
9,T23G T36A,0.0286
10,T23G T36C,0.0436
11,T23G T36G,0.061
12,A24C,0.025
13,A24C A27C,0.056
14,A24C A27G,0.0468
15,A24C A27T,0.105
16,A24C A29C,0.0282
17,A24C A29G,0.0302
18,A24C A29T,0.0449
19,A24C A30C,0.034
20,A24C A30G,0.0241
21,A24C A30T,0.0451
22,A24C A31C,0.0126
23,A24C A31G,0.0441
24,A24C A31T,0.0211

row,Variant,fraction ligated
1,A24C A35C,0.00154
2,A24C A35G,0.00404
3,A24C A35T,0.00376
4,A24C A43C,0.0036
5,A24C A43G,0.00364
6,A24C A43T,0.0035
7,A24C A44C,0.00359
8,A24C A44G,0.00645
9,A24C A44T,0.0123
10,A24C C26A,0.0482
11,A24C C26G,0.032
12,A24C C26T,0.0975
13,A24C G28A,0.0266
14,A24C G28C,0.0343
15,A24C G28T,0.0617
16,A24C G33A,0.0216
17,A24C G33C,0.00418
18,A24C G33T,0.0129
19,A24C G34A,0.0317
20,A24C G34C,0.00204
21,A24C G34T,0.00294
22,A24C G37A,0.00687
23,A24C G37C,0.00569
24,A24C G37T,0.00693

row,Variant,fraction ligated
1,A24C G42A,0.00275
2,A24C G42C,0.000786
3,A24C G42T,0.00251
4,A24C T25A,0.0142
5,A24C T25C,0.0235
6,A24C T25G,0.0197
7,A24C T32A,0.00211
8,A24C T32C,0.00194
9,A24C T32G,0.00553
10,A24C T36A,0.0726
11,A24C T36C,0.0109
12,A24C T36G,0.438
13,A24G,0.122
14,A24G A27C,0.254
15,A24G A27G,0.0437
16,A24G A27T,0.231
17,A24G A29C,0.0668
18,A24G A29G,0.0952
19,A24G A29T,0.116
20,A24G A30C,0.0534
21,A24G A30G,0.185
22,A24G A30T,0.058
23,A24G A31C,0.0105
24,A24G A31G,0.0578

row,Variant,fraction ligated
1,A24G A31T,0.0427
2,A24G A35C,0.0163
3,A24G A35G,0.0312
4,A24G A35T,0.00297
5,A24G A43C,0.0035
6,A24G A43G,0.00288
7,A24G A43T,0.00328
8,A24G A44C,0.00892
9,A24G A44G,0.0186
10,A24G A44T,0.016
11,A24G C26A,0.0171
12,A24G C26G,0.00544
13,A24G C26T,0.00563
14,A24G G28A,0.043
15,A24G G28C,0.065
16,A24G G28T,0.254
17,A24G G33A,0.294
18,A24G G33C,0.0566
19,A24G G33T,0.0804
20,A24G G34A,0.00498
21,A24G G34C,0.00145
22,A24G G34T,0.000849
23,A24G G37A,0.00154
24,A24G G37C,0.000862

row,Variant,fraction ligated
1,A24G G37T,0.00318
2,A24G G42A,0.00347
3,A24G G42C,0.00119
4,A24G G42T,0.000969
5,A24G T25A,0.00617
6,A24G T25C,0.01
7,A24G T25G,0.00212
8,A24G T32A,0.00439
9,A24G T32C,0.00122
10,A24G T32G,0.00185
11,A24G T36A,0.0103
12,A24G T36C,0.0933
13,A24G T36G,0.00746
14,A24T,0.011
15,A24T A27C,0.105
16,A24T A27G,0.0839
17,A24T A27T,0.171
18,A24T A29C,0.0116
19,A24T A29G,0.00599
20,A24T A29T,0.0058
21,A24T A30C,0.00942
22,A24T A30G,0.0104
23,A24T A30T,0.00805
24,A24T A31C,0.00611

row,Variant,fraction ligated
1,A24T A31G,0.00616
2,A24T A31T,0.00682
3,A24T A35C,0.0024
4,A24T A35G,0.00268
5,A24T A35T,0.00183
6,A24T A43C,0.00315
7,A24T A43G,0.00117
8,A24T A43T,0.00827
9,A24T A44C,0.00276
10,A24T A44G,0.0057
11,A24T A44T,0.00772
12,A24T C26A,0.00282
13,A24T C26G,0.0102
14,A24T C26T,0.0111
15,A24T G28A,0.0366
16,A24T G28C,0.0438
17,A24T G28T,0.0703
18,A24T G33A,0.0223
19,A24T G33C,0.00781
20,A24T G33T,0.0124
21,A24T G34A,0.0316
22,A24T G34C,0.00388
23,A24T G34T,0.00322
24,A24T G37A,0.00164

row,Variant,fraction ligated
1,A24T G37C,0.00436
2,A24T G37T,0.00399
3,A24T G42A,0.00238
4,A24T G42C,0.00191
5,A24T G42T,0.00308
6,A24T T25A,0.0063
7,A24T T25C,0.0313
8,A24T T25G,0.00899
9,A24T T32A,0.00395
10,A24T T32C,0.000877
11,A24T T32G,0.00134
12,A24T T36A,0.0205
13,A24T T36C,0.00304
14,A24T T36G,0.0114
15,T25A,0.00703
16,T25A A27C,0.0652
17,T25A A27G,0.0139
18,T25A A27T,0.0564
19,T25A A29C,0.00458
20,T25A A29G,0.00957
21,T25A A29T,0.015
22,T25A A30C,0.0114
23,T25A A30G,0.00687
